These results are taken from IntAct's records for PubMed 18423202.

B1: Regulator of nonsense transcripts 1 (Homo sapiens), Q92900-2 (parent)
chain: MSVEAYGPSSQTLTFLDTEEAELLGADTQGSEFEFTDFTLPSQTQTPPGGPGGPGGGGAGGPGGAGAGAAAGQLDAQVGPEGILQNGAVDDSVAKTSQLLAELNFEEDEEDTYYTKDLPIHACSYCGIHDPACVVYCNTSKKWFCNGRGNTSGSHIVNHLVRAKCKEVTLHKDGPLGETVLECYNCGCRNVFLLGFIPAKADSVVVLLCRQPCASQSSLKDINWDSSQWQPLIQDRCFLSWLVKIPSEQEQLRARQITAQQINKLEELWKENPSATLEDLEKPGVDEEPQHVLLRYEDAYQYQNIFGPLVKLEADYDKKLKESQTQDNITVRWDLGLNKKRIAYFTLPKTDSDMRLMQGDEICLRYKGDLAPLWKGIGHVIKVPDNYGDEIAIELRSSVGAPVEVTHNFQVDFVWKSTSFDRMQSALKTFAVDETSVSGYIYHKLLGHEVEDVIIKCQLPKRFTAQGLPDLNHSQVYAVKTVLQRPLSLIQGPPGTGKTVTSATIVYHLARQGNGPVLVCAPSNIAVDQLTEKIHQTGLKVVRLCAKSREAIDSPVSFLALHNQIRNMDSMPELQKLQQLKDETGELSSADEKRYRALKRTAERELLMNADVICCTCVGAGDPRLAKMQFRSILIDESTQATEPECMVPVVLGAKQLILVGDHCQLGPVVMCKKAAKAGLSQSLFERLVVLGIRPIRLQVQYRMHPALSAFPSNIFYEGSLQNGVTAADRVKKGFDFQWPQPDKPMFFYVTQGQEEIASSGTSYLNRTEAANVEKITTKLLKAGAKPDQIGIITPYEGQRSYLVQYMQFSGSLHTKLYQEVEIASVDAFQGREKDFIILSCVRANEHQGIGFLNDPRRLNVALTRARYGVIIVGNPKALSKQPLWNHLLNYYKEQKVLVEGPLNNLRESLMQFSKPRKLVNTINPGARFMTTAMYDAREAIIPGSVYDRSSQGRPSSMYFQTHDQIGMISAGPSHVAAMNIPIPFNLVMPPMPPPGYFGQANGPAAGRGTPKGKTGRGGRQKNRFGLPGPSQTNLPNSQASQDVASQPFSQGALTQGYISMSQPSQMSQPGLSQPELSQDSYLGDEFKSQIDVALSQDSTYQGERAYQHGGVTGLSQY

One test covers variants of B1. The conditions noted are these: with eif3a_human EIF3A.
As for G495R;G497E, the “effect of a mutation on the interaction” value is “increasing interaction”.

In the next test the parent is B1. To be noted: with eif3a_human EIF3A. This is another data set of the same source.
Regarding G495R;G497E, the “effect of a mutation on the interaction” value is recorded as “increasing interaction”.
